Laboratory results as given in patent publication US10202593B2, “Evolved sortases and uses thereof” (President and Fellows of Harvard College, priority 2013, dated 2019).
Numbering of substitutions follows the chain as printed. Names and notes keep the numbering of the source. Like-named read-outs stand apart in the source and are kept apart here.

B1: eSrtA(2A-4): 5mut + A104H K162R V168I I182V (protein)
chain: QAKPQIPKDKSKVAGYIEIPDADIKEPVYPGPATREQLNRGVSFHEENESLDDQNISIAGHTFIDRPNYQFTNLKAAKKGSMVYFKVGNETRKYKMTSIRNVRPTAVEILDEQKGKDKQLTLVTCDDYNEETGVWETRKIFVATEVK
B2: eSrtA(2A-5): 5mut + R99H A104H K138I K162R I182V (protein)
chain: B1 chain with R40H, K79I, I109V
B3: eSrtA(2A-3.5) (protein)
chain: B1 chain with H45A, V123F
B4: eSrtA(2A-3): round 3 LAETG clone: eSrtA + K84R F122S D124G K134R K145E K162R V168I K177R I182F (protein)
chain: B1 chain with K25R, H45A, F63S, D65G, K75R, K86E, K118R, V123F
B5: 2A.6C: 5mut + A104H K138P K152I D160K* K162R I182V (protein)
chain: B1 chain with K79P, K93I, N101K, I109V

Key:
[1] = system: LAETG (Abz-LAETGK(Dnp)-CONH2); assay: In vitro sortase kinetics HPLC assay, LAETG substrate; assay type: biochemical; conditions: for increase in kcat/Km for LAETG as compared to LPETG / increased affinity (KM) for the LAETG substrate as compared to the LPETG substrate: FIG. 1; for Specificity (relative catalytic efficiency, fold): ratio of kcat/KM between 2A (LAETG) and wt (LPETG); for specificity (relative cat. Efficiency, fold): ratio of kcat/Km between 2A (LAETG) and wt (LPETG) substrates, favoured over disfavoured; for kcat, 1 mM LxExG (Hz) / kHydrolysis (Hz): GGG varied; for kHydrolysis (Hz): 1 mM
Description: (§1) See below for details on sortase expression and purification, and on the synthesis of Abz-LPETGK(Dnp)-CONH2 (SEQ ID NO: 19). […] Reactions were initiated with the addition of enzyme and incubated at 22.5° C. for 3 to 20 minutes before quenching with 0.5 volumes of 1 M HCl. Five to ten nmol of peptide from the quenched reactions were injected onto an analytical reverse-phase Eclipse XDB-C18 HPLC column (4.6×150 mm, 5 μm, Agilent Technologies) and chromatographed using a gradient of 10 to 65% acetonitrile with 0.1% TFA in 0.1% aqueous TFA over 13 minutes. Retention times under these conditions for the Abz-LPETGK(Dnp)-CONH2 (SEQ ID NO: 19) substrate, the released GKDnp peptide, and the Abz-LPETGGG-COOH (SEQ ID NO: 20) product were 12.8, 10.4, and 9.1 min, respectively. To calculate the percent conversion, the ratio of the integrated areas of the Abz-LPETGGG-COOH (SEQ ID NO: 20) and Abz-LPETGK(Dnp)-CONH2 (SEQ ID NO: 19) peptide Abs220 peaks was compared to a standard curve generated by mixing the product and starting peptide in known ratios. To determine […] and Km, reaction rates were fit to the Michaelis-Menten equation using OriginPro 7.0 software. All kinetics values reported represent the average of at least three measurements. Percent conversion was also calculated by using the ratio of the integrated areas of the GK(Dnp)-CONH2 and Abz-LPETGK(Dnp)-CONH2 peptide Abs355 peaks were compared directly (Example 5). To determine kcat and Km, LPETG, reaction rates were fit to the Michaelis-Menten equation using Microsoft Excel using the Solver add-in. To determine Km,GGG and KH, reaction rates were fit to the modified Michaelis-Menten, for which KH is as defined when KH<<Km,GGG.
(§2) Assays to determine eSrtA, eSrtA(2A-9) and eSrtA(4S-9) specificity were performed by preparing 10 μM stocks of Abz-LXEXGK(Dnp) (SEQ ID NO: 75) peptides in 300 mM Tris pH 7.5, 150 mM NaCl, 5 mM CaCl2, 5% v/v DMSO, and 100 mM Gly-Gly-Gly-COOH (GGG). Reactions were performed by adding eSrtA(2A-9) to a final concentration of 450 nM, eSrtA(4S-9) to a final concentration of 115 nM or eSrtA to a final concentration of 47.5 nM and a final volume of 100 μL, then incubating at 22.5° C. for 15 minutes. Reactions were quenched by the addition of 0.2 volumes of 5 M HCl, then were injected onto an analytical reverse-phase Eclipse XDB-C18 HPLC column (4.6×150 mm, 5 μm, Agilent Technologies) and chromatographed using a gradient of 10 to 65% acetonitrile with 0.1% TFA in 0.1% aqueous TFA over 13 minutes. Retention times under these conditions for the Abz-LPETGK(Dnp)-CONH2 (SEQ ID NO: 19) substrate, the released GKDnp peptide, and the Abz-LPETGGG-COOH (SEQ ID NO: 20) product were 12.8, 10.4, and 9.1 min, respectively, while the remaining Abz-LXEXGK(Dnp)-CONH2 (SEQ ID NO: 74) substrates varied in retention time between 9 and 13 minutes. To calculate the percent conversion, the ratio of the integrated areas of the GK(Dnp)-CONH2 and Abz-LPETGK(Dnp)-CONH2 (SEQ ID NO: 19) peptide Abs355 peaks were compared directly. Subsequent determination of kcat/Km and KH were performed as described for in vitro SrtA characterization.
(§3) In each case, rate constants were determined by measuring enzyme velocity at eight different substrate concentrations by HPLC assay, then fit using nonlinear regression to the Michaelis-Menten equation, yielding kcat and Km. KH was calculated by measuring enzyme velocity at 1 mM target substrate and eight different GGG concentrations by HPLC assay, then fitting the resulting curves using nonlinear regression to the modified Michaelis-Menten equation.

[2] = system: LPETG (Abz-LPETGK(Dnp)-CONH2); assay: In vitro sortase kinetics HPLC assay, LPETG substrate; assay type: biochemical; conditions: substrate wt (LPETG)
Description: as §1, §2, §3

[3] = Example 5 variants, substrate 2A (LAETG)
[4] = Example 5 variants, substrate 2A (LAETG), read-out: Avg KM
[5] = substrate 2A (LAETG), read-out: Km, LxExG
[6] = Example 5 variants, read-out: Avg KM
[7] = 1 mM 2A (LAETG) substrate, read-out: Km, GGG

Molecule	Avg kcat (Hz) [1, 3]	Km [1, 4]	increase in kcat/Km for LAETG as compared to LPETG [1]	Specificity (relative catalytic efficiency, fold) [1]	specificity (relative cat. Efficiency, fold) [1]	kcat, 10 mM GGG (Hz) ([1]; substrate 2A (LAETG))	Km [1, 5]	Avg kcat (Hz) ([2]; Example 5 variants)	Km [2, 6]	kcat, 10 mM GGG (Hz) [2]	Km ([2]; read-out: Km, LxExG)	Khydrolysis ([1]; 1 mM 2A (LAETG) substrate)	kcat, 1 mM LxExG (Hz) ([1]; 1 mM 2A (LAETG) substrate)	Km [1, 7]	increased affinity (KM) for the LAETG substrate as compared to the LPETG substrate [1]	kL/KL/KH ([1]; substrate 2A (LAETG))	kHydrolysis (Hz) ([1]; substrate 2A (LAETG))	also measured
B1	1.988 Hz	3.72 mM	~40 fold	55.11 fold	73.05 fold	1.901 Hz	3.25 mM	0.0501 Hz	5.18 mM	0.09356 Hz	11.7 mM							preference for LAETG over LPETG ([1]; ratio of kcat/KM): 73 fold
B2			~125 fold		115.7 fold	1.41 Hz	0.433 mM			0.1375 Hz	4.9 mM	615.9 µM	1.493 Hz	2.81 mM	~116 fold	5.29E+06	0.324 Hz	KH ([1]; GGG concentration at which hydrolysis and transpeptidation rates are equal, unit not given): 731±235
B3	1.14 Hz	6.37 mM		2.252 fold		1.249 Hz	7.16 mM	1.525 Hz	3.75 mM	1.587 Hz	4.11 mM							lower activity than that of eSrtA on its native LPETG substrate ([1]; minimal mutant, LPETG and LAETG processed): ~100 fold
B4	1.117 Hz	1.62 mM		1.436 fold				2.653 Hz	2.1 mM									preference for LPETG over LAETG ([1]; ratio of kcat/KM): 1.4 fold; reduced catalytic efficiency ([1]; round 3 clone, LAETG target): > 10 fold
B5					61.61 fold	0.8129 Hz	0.343 mM			0.07676 Hz	1.98 mM	12.49 µM	0.5359 Hz	0.642 mM	~61 fold	1.91E+08	0.01048 Hz	
